Patent US20130183702

Tested on: T1, cholesterol-tagged, protease-sensitive polyacrylic acid block copolymer containing the peptide GSGRSAGC (SEQ ID NO: 20), embedded in polymer-caged liposomes (PCLs)
T1 sequence: GSGRSAGC

Substance: urokinase plasminogen activator (uPA)
- carboxyfluorescein release from PCLs (total fluorescent intensity), -uPA vs +uPA (25 ug/mL, fresh batch), second test: They show very little difference in total intensity and the p value is 0.6617 between the two, indicating that they are not different
- carboxyfluorescein release from PCLs (total fluorescent intensity), no uPA vs 25 ug/mL uPA, first test: there was very little difference between the no uPA sample and the uPA sample, indicating that the polymer caged liposome did not have the desired sensitivity to uPA (p=0.5173)
- carboxyfluorescein release from PCLs (total fluorescent intensity), no uPA vs renatured uPA, third test: there is a difference between the no uPA sample and the uPA sample with the uPA sample being significantly higher (p value 0.0071)
- change in conductance (current vs. time) after adding 10^-11 mol urokinase to MgSO4-loaded PCLs: A significant increase in conductance was observed due to the release of Mg^2+ and SO4^2- from the liposomes' hydrophilic interior
- fluorescence of cyanine 7.0 released from PCLs after adding urokinase-type plasminogen activator, recorded every 5 min: The highest peak was visible after 50 minutes of incubation time
